In patent US20210403582A1 (JACOBIO PHARMACEUTICALS, published 2021):
Substitutions are numbered along the chain they refer to.

B1: H2L2 (antibody, human IgG1, kappa)
heavy: not shown
light: DIHMTQSPSSLSASVGDRVTITCRASENIYSYLAWYQQKPGKSPKLLVYNAKTLAEGVPSRFSGSGSGTDFTLTISSLQPEDFATYYCQHHYVTPLTFGQGTKLEIKRTVAAPSVFIFPPSDEQLKSGTASVVCLLNNFYPREAKVQWKVDNALQSGNSQESVTEQDSKDSTYSLSSTLTLSKADYEKHKVYACEVTHQGLSSPVTKSFNRGEC
notes: Humanized, human IgG1 / kappa
B2: 38E HuH1L1 (antibody, human IgG1, kappa, N297A)
heavy: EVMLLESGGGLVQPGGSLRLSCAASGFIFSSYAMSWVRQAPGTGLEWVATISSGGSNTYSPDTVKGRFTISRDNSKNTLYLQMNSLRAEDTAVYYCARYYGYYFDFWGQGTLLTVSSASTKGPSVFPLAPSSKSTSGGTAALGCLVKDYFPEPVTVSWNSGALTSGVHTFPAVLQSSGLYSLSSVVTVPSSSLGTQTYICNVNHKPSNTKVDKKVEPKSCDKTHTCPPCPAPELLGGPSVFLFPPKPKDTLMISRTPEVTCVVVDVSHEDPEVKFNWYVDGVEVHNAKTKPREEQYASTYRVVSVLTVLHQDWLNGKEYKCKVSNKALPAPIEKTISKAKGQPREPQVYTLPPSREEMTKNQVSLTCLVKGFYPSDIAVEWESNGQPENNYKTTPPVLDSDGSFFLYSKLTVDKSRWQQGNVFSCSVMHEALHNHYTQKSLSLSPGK
light: B1 light with H3Q
notes: Humanized, human IgG1 / kappa
B3: 38E HuH1L4 (antibody, human IgG1, kappa, N297A, V domains shown)
VH: EVMLLESGGGLVQPGGSLRLSCAASGFIFSSYAMSWVRQAPGTGLEWVATISSGGSNTYSPDTVKGRFTISRDNSKNTLYLQMNSLRAEDTAVYYCARYYGYYFDFWGQGTLLTVSS
VL: DIHMTQSPSSLSASVGDRVTITCRASENIYSYLAWYQQKQGKSPQLLVYNAKTLAEGVPSRFSGSGSGTQFTLKINSLQPEDFATYYCQHHYVTPLTFGQGTKLEIKR
notes: Humanized, human IgG1 / kappa
B4: 38E HuH2L4 (antibody, human IgG1, kappa, V domains shown)
VH: B3 VH with L5V, V93M
VL: B3 VL
notes: Humanized, human IgG1 / kappa
B5: H1L2 (antibody, human IgG1, kappa, N297A)
heavy: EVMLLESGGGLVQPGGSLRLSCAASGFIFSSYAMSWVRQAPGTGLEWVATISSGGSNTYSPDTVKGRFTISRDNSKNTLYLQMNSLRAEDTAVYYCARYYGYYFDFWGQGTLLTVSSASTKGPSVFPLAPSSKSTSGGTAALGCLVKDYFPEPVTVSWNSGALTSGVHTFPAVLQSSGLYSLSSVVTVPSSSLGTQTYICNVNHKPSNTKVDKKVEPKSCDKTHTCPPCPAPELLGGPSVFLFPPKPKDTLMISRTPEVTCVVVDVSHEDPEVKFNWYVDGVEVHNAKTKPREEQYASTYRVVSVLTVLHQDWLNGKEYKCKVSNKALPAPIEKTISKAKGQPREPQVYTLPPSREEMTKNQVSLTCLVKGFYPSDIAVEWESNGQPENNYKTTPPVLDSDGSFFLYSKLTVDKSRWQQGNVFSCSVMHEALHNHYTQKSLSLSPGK
light: B1 light
notes: Humanized, human IgG1 / kappa
B6: H1L3 (antibody, human IgG1, kappa, N297A, V domains shown)
VH: B3 VH
VL: B3 VL with Q40P, K74T, N76S
notes: Humanized, human IgG1 / kappa
B7: H2L1 (antibody, human IgG1, kappa)
heavy: not shown
light: B1 light with H3Q
notes: Humanized, human IgG1 / kappa
B8: H2L3 (antibody, human IgG1, kappa, V domains shown)
VH: B3 VH with L5V, V93M
VL: B3 VL with Q40P, K74T, N76S
notes: Humanized, human IgG1 / kappa
B9: H3L1 (antibody, human IgG1, kappa, N297A)
heavy: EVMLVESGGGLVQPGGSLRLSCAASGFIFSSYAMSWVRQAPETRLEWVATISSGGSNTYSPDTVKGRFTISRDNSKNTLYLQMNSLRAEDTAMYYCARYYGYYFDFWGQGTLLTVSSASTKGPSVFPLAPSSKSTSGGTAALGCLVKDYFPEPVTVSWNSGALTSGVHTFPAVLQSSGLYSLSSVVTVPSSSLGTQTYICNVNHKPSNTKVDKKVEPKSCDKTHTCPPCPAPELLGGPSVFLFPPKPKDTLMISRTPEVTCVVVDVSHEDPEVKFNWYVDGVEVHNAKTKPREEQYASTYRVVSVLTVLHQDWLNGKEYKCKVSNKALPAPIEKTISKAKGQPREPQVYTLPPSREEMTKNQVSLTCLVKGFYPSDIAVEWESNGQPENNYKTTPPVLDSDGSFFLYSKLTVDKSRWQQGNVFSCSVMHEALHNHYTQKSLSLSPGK
light: B1 light with H3Q
notes: Humanized, human IgG1 / kappa
B10: H3L3 (antibody, human IgG1, kappa, N297A, V domains shown)
VH: B3 VH with L5V, G42E, G44R, V93M
VL: B3 VL with Q40P, K74T, N76S
notes: Humanized, human IgG1 / kappa
B11: 38E10E1C11 chimeric antibody (antibody, human IgG1, kappa)
heavy: not shown
light: DIHMTQSPASLSASVGETVTITCRASENIYSYLAWYQQKQGKSPQLLVYNAKTLAEGVPSRFSGSGSGTQFSLKINSLQPEDFGSYYCQHHYVTPLTFGAGTKLELKRTVAAPSVFIFPPSDEQLKSGTASVVCLLNNFYPREAKVQWKVDNALQSGNSQESVTEQDSKDSTYSLSSTLTLSKADYEKHKVYACEVTHQGLSSPVTKSFNRGEC
notes: Mouse variable regions of 38E10E1C11 with human IgG1 / kappa constant regions; also called 38E Chimeric; 38E chimeric antibody

Target: T1, human LIF protein (human, UniProt P15018 23-202)
T1 construct: Bought recombinant protein (Sino Biological / Yiqiao Shenzhou 14890-HNAH) in most assays; also called recombinant human LIF protein; rhLIF
Experiment: ELISA, antigen coated 0.5 ug/ml, 293S supernatant non-heated, antibody 0.2 ug/mL
Protocol: (§1) Each well was coated with 100 μL of 0.5 μg/ml antigen and incubate overnight at 4° C., and the plates were washed three times with 300 μL of Wash Buffer. The plates were closed with 200 μL of Closure Buffer (2% bovine serum albumin) for 60 min at room temperature. The plates were washed three times with 300 μL of Wash Buffer. 100 μL of diluted anti-LIF antibody at different concentrations was added to each well and incubate for 1 hour at room temperature. The plates were washed 4 times with 300 μL of Wash Buffer. 100 μL of HRP-labeled goat anti-human Fc secondary antibody at a dilution of 1:5000 was added and incubate for 1 hour at room temperature. The plates were washed 6 times with 300 μL of Wash Buffer. 100 μL of H₂O₂-Amplx Color Development Solution was added for developing the color for 10 min at room temperature under dark conditions. The OD 450 value was read by an enzyme marker. Heat treatment: the expression medium was heated on the PCR machine at 70° C. for 5 min and then rapidly cooled to room temperature. Perform subsequent ELISA assays as above.

T1 sequence (P15018 23-202 limits assumed): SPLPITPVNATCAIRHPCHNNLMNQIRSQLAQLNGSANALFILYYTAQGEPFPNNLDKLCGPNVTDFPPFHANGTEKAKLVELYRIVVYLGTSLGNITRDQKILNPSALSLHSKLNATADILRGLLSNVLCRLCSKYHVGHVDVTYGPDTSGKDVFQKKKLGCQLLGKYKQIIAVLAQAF

Point of comparison: B8, ELISA signal 11300. Against it:
- B1 — lower, 10300
- B2 — lower, 10600
- B3 — lower, 10900
- B4 — lower, 10900
- B5 — lower, 11200
- B6 — lower, 10800
- B7 — lower, 10700
- B9 — lower, 10000
- B10 — lower, 11000
- B11 — lower, 10400

Target: T1, human LIF protein
Experiment: ELISA, antigen coated 0.5 ug/ml, 293S supernatant heated 70 C 5 min, antibody 0.04 ug/mL
Protocol: as §1

Point of comparison: B5, ELISA signal 5490. Against it:
- B1 — lower, 5260
- B2 — higher, 5970
- B3 — higher, 5670
- B4 — higher, 5700
- B6 — lower, 4980
- B7 — lower, 5440
- B8 — lower, 4870
- B9 — lower, 5190
- B10 — lower, 5390
- B11 — lower, 4730

Target: T1, human LIF protein
Experiment: ELISA, antigen coated 0.5 ug/ml, 293S supernatant non-heated, antibody 1 ug/mL
Protocol: as §1

Point of comparison: B1, ELISA signal 11700. Against it:
- B2 — higher, 11800
- B3 — higher, 11900
- B4 — higher, 11800
- B5 — higher, 12100
- B6 — higher, 11800
- B7 — higher, 12000
- B8 — higher, 12000
- B9 — lower, 11400
- B10 — lower, 11300
- B11 — lower, 11400

Target: T1, human LIF protein
Experiment: ELISA (non-heated), purified IgG on antigen coated at 0.5 µg/mL, 3-fold dilutions

Point of comparison: B11, “EC50 (read off the curve)” value ~0.07 µg/mL. Against it:
- B2 — the same, ~0.07 µg/mL
- B3 — the same, ~0.07 µg/mL
- B4 — the same, ~0.07 µg/mL

Target: T1, human LIF protein
Experiment: ELISA, antigen coated 0.5 ug/ml, 293S supernatant heated 70 C 5 min, antibody 0.2 ug/mL
Protocol: as §1

Point of comparison: B3, ELISA signal 9700. Against it:
- B1 — lower, 8720
- B2 — lower, 9010
- B4 — lower, 9230
- B5 — lower, 8920
- B6 — lower, 8750
- B7 — lower, 8560
- B8 — lower, 9150
- B9 — lower, 7900
- B10 — lower, 8900
- B11 — lower, 8840

Target: T1, human LIF protein
Experiment: ELISA, antigen coated 0.5 ug/ml, 293S supernatant non-heated, antibody 0.04 ug/mL
Protocol: as §1

Point of comparison: B3, ELISA signal 7320. Against it:
- B1 — lower, 6520
- B2 — lower, 6850
- B4 — lower, 6880
- B5 — lower, 6680
- B6 — lower, 6440
- B7 — lower, 6370
- B8 — lower, 6270
- B9 — lower, 6220
- B10 — lower, 6760
- B11 — lower, 6780

Target: T1, human LIF protein
Experiment: BLI (Gator), antibody on anti-human Fc biosensor, human LIF in solution
Protocol: The affinity of anti-LIF antibody to human LIF protein was determined using Gator. The anti-human LIF antibody was first diluted to 5 ug/mL with PBS and then added to A-F wells in second column of the 96-well plate (200 μL per well). […] PBS was added to A-F wells in the first and third columns (200 μL per well). The 96-well plates were placed into the instrument and detected with anti-human Fc biosensor.

Point of comparison: B2, Kd 0.0817 nM. Against it:
- B11 — 3.5-fold lower, 0.0233 nM

Point of comparison: B11, koff 1.57e-05 s⁻¹. Against it:
- B2 — 3-fold higher, 4.65e-05 s⁻¹

Point of comparison: B2, kon 569000 M⁻¹ s⁻¹. Against it:
- B11 — within 1.5-fold, 677000 M⁻¹ s⁻¹

Target: T1, human LIF protein
Experiment: ELISA (heated), antibody kept at 70 °C for 5 min before the ELISA, antigen coated at 0.5 µg/mL

Point of comparison: B4, “EC50 (read off the curve)” value ~0.3 µg/mL. Against it:
- B2 — 3-fold lower, ~0.1 µg/mL
- B3 — the same, ~0.3 µg/mL

Target: T1, human LIF protein
Experiment: ELISA, antigen coated 0.5 ug/ml, 293S supernatant heated 70 C 5 min, antibody 1 ug/mL
Protocol: as §1

Point of comparison: B6, ELISA signal 9630. Against it:
- B1 — higher, 9780
- B2 — higher, 9800
- B3 — higher, 10500
- B4 — higher, 10600
- B5 — higher, 9830
- B7 — higher, 9650
- B8 — higher, 9730
- B9 — lower, 9130
- B10 — lower, 9540
- B11 — higher, 10600
